Results from the supplement of paper PMC6757056.
± gives the standard deviation of the averaged measurements.

B1: library; a variant is named by its letters at N, in order (parent)
chain: GCUGUCACCGGUGUAUUACCCUAGUGGUCGACCGGUCUGAUGAGUCUNNNNNNAGACGAAACAGC

Columns and labels:
[1] = variants of: B1; test: FACS-Seq fitted mean relative fluorescence mCherry/BFP without ligand (log10 relative fluorescence); ligand: hypoxanthine (xanthine aptamer); higher = higher reporter protein expression; settings: HEK293T, ligand present: no
Procedure, shortened: (§1)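 HEK293T libraries were lentivirally transduced with an mCherry reporter carrying the ribozyme switch and an EF1α-BFP marker, enriched, and incubated for 48 h with or without ligand before sorting into 6 bins by mCherry/BFP. Genomic DNA from each bin was PCR-amplified, barcoded and sequenced on MiSeq. Fluorescence is the fitted normal mean of the bin counts. The fit used log10(mCherry/BFP), and means were scaled to five spiked-in control ribozymes.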

[2] = variants of: B1; test: normalized RNA/DNA level with ligand (relative to sTRSVctl = 100) (log10 (% of sTRSVctl)); ligand: hypoxanthine (xanthine aptamer); higher = less ribozyme self-cleavage, higher mRNA level; settings: ligand concentration (+) RNA-Seq: 5 mM, HEK293T, reporter: mCherry (pCS4076), ligand present: yes
Protocol: (§2)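 Hammerhead (sTRSV) ribozyme switch libraries with a ligand aptamer grafted on stem I and a randomized N4-6 loop II, cloned into the 3' UTR of mCherry and transiently transfected into HEK293T cells; RNA-Seq 72 h post transfection with ligand added 1 h before transfection; RNA read count / plasmid DNA read count normalized to the non-cleaving sTRSVctl (x100), log10; sequences with >100 DNA reads. FACS-Seq: lentiviral library sorted into 6 bins after 48 h ligand, log-normal fit mean of mCherry/BFP scaled to controls. Printed sequences are partial switch sequences.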

[3] = variants of: B1; test: normalized RNA/DNA level without ligand (relative to sTRSVctl = 100) (log10 (% of sTRSVctl)); ligand: hypoxanthine (xanthine aptamer); higher = less ribozyme self-cleavage, higher mRNA level; settings: HEK293T, reporter: mCherry (pCS4076), ligand present: no
Protocol: as §2

[4] = variants of: B1; test: FACS-Seq fitted mean relative fluorescence mCherry/BFP with ligand (log10 relative fluorescence); ligand: hypoxanthine (xanthine aptamer); ligand concentration (+) FACS-Seq: 5 mM; higher = higher reporter protein expression; settings: HEK293T, ligand present: yes
Procedure, shortened: as §1

Variant | FACS-Seq fitted mean (log10) [1] | normalized RNA/DNA level with ligand (log10) [2] | normalized RNA/DNA level without ligand (log10) [3] | FACS-Seq fitted mean (log10) [4]
GAGAUC | 0.247 ± 0.015 | 1.94 ± 0.021 | 1.83 ± 0.053 | 0.211 ± 0.004
GAGAUG | 0.1129 ± 0.00042 | 1.65 ± 0.064 | 1.14 ± 0.05 | 0.707 ± 0.033
GAGAUA | 0.345 ± 0.013 | 1.869 ± 0.015 | 1.65 ± 0.0036 | 0.362 ± 0.087
CAGAAC | 0.442 ± 0.066 | 1.884 ± 0.0072 | 1.73 ± 0.039 | 0.407 ± 0.016
CAGAAA | 0.22 ± 0.05 | 1.874 ± 0.00091 | 1.58 ± 0.062 | 0.32 ± 0.027
AAGGUG | -0.0635 ± 0.037 | 1.666 ± 0.0026 | 1.22 ± 0.024 | 0.37 ± 0.077
AAGGUA | 0.0361 ± 0.0026 | 1.767 ± 0.012 | 1.62 ± 0.021 | 0.162 ± 0.035
AAGGUU | 0.941 ± 0.099 | 1.93 ± 0.021 | 1.7849 ± 0.0012 | 0.771 ± 0.19
CAGCAU | 0.36 ± 0.085 | 1.947 ± 0.0067 | 1.71 ± 0.029 | 0.642 ± 0.028
GAUAAA | 0.6 ± 0.041 | 1.919 ± 0.009 | 1.764 ± 0.0024 | 0.621 ± 0.12
CAUAAA | 0.609 ± 0.07 | 1.89 ± 0.038 | 1.735 ± 0.01 | 0.597 ± 0.038
UAGAUG | -0.00441 ± 0.085 | 1.9 ± 0.081 | 1.615 ± 0.0023 | 0.344 ± 0.03
CAGCUC | 0.219 ± 0.029 | 2.03 ± 0.022 | 1.972 ± 0.014 | 0.115 ± 0.03
UACUGU | 0.399 ± 0.032 | 1.95 ± 0.066 | 1.67 ± 0.011 | 0.638 ± 0.036
GAGUCA | 0.644 ± 0.03 | 1.906 ± 0.014 | 1.74 ± 0.056 | 0.707 ± 0.032
UAGGAA | 0.348 ± 0.033 | 1.88 ± 0.031 | 1.64 ± 0.018 | 0.483 ± 0.056
UAGGAU | 0.683 ± 0.097 | 1.94 ± 0.027 | 1.66 ± 0.021 | 0.628 ± 0.013
CAGCGU | -0.166 ± 0.056 | 1.967 ± 0.017 | 1.89 ± 0.046 | -0.185 ± 0.11
CAGCGG | 0.2617 ± 0.00076 | 1.9 ± 0.031 | 1.48 ± 0.029 | 0.612 ± 0.059
GAGGGC | -0.0173 ± 0.076 | 1.87 ± 0.056 | 1.5 ± 0.021 | 0.367 ± 0.041
CAGGAA | 0.2364 ± 0.0018 | 1.958 ± 0.014 | 1.58 ± 0.074 | 0.529 ± 0.019
CAGGAU | 0.34323 ± 0.00015 | 1.947 ± 0.013 | 1.682 ± 0.015 | 0.512 ± 0.028
AAGCUG | 0.17 ± 0.068 | 1.72 ± 0.032 | 1.23 ± 0.054 | 0.481 ± 0.046
AAGAGA | 0.1774 ± 0.00084 | 1.8 ± 0.047 | 1.25 ± 0.055 | 0.598 ± 0.033

Variant | FACS-Seq fitted mean (log10) [1] | normalized RNA/DNA level with ligand (log10) [2] | normalized RNA/DNA level without ligand (log10) [3] | FACS-Seq fitted mean (log10) [4]
AAGAGU | 0.323 ± 0.065 | 1.81 ± 0.025 | 1.4 ± 0.047 | 0.664 ± 0.051
AAGAGG | -0.185 ± 0.01 | 1.43 ± 0.017 | 1.065 ± 0.0061 | 0.478 ± 0.048
UAGCAA | 0.0307 ± 0.043 | 1.9 ± 0.026 | 1.739 ± 0.0055 | 0.155 ± 0.024
UAGCAG | 0.215 ± 0.033 | 1.87 ± 0.02 | 1.61 ± 0.038 | 0.507 ± 0.05
AACUGU | 0.343 ± 0.028 | 1.89 ± 0.027 | 1.72 ± 0.014 | 0.538 ± 0.014
CAGACA | 0.574 ± 0.043 | 1.96 ± 0.032 | 1.75 ± 0.045 | 0.74 ± 0.064
GAGGUG | 0.14 ± 0.057 | 1.78 ± 0.031 | 1.33 ± 0.025 | 0.551 ± 0.026
GAGACG | 0.287 ± 0.0096 | 1.749 ± 0.015 | 1.25 ± 0.055 | 0.807 ± 0.067
GAGACU | -0.451 ± 0.03 | 1.96 ± 0.047 | 1.83 ± 0.031 | -0.205 ± 0.035
GAGACA | 0.3113 ± 0.00099 | 1.905 ± 0.0057 | 1.68 ± 0.029 | 0.548 ± 0.014
UAGGGU | 0.526 ± 0.034 | 1.84 ± 0.067 | 1.5 ± 0.027 | 0.632 ± 0.075
UAGGGG | 0.118 ± 0.086 | 1.87 ± 0.037 | 1.5 ± 0.022 | 0.393 ± 0.018
AAGUUU | -0.231 ± 0.049 | 1.898 ± 0.012 | 1.87 ± 0.023 | -0.254 ± 0.013
AAGUUA | -0.098 ± 0.017 | 1.89 ± 0.02 | 1.613 ± 0.013 | 0.476 ± 0.07
AAGUUG | -0.243 ± 0.014 | 1.626 ± 0.013 | 1.12 ± 0.013 | 0.435 ± 0.052
GAGUAA | 0.154 ± 0.061 | 1.878 ± 0.015 | 1.54 ± 0.023 | 0.427 ± 0.056
GAGUAU | 0.3631 ± 0.0016 | 1.913 ± 0.0071 | 1.69 ± 0.021 | 0.472 ± 0.017
GAGUAC | 0.301 ± 0.14 | 1.907 ± 0.019 | 1.71 ± 0.041 | 0.51 ± 0.013
GAGUAG | -0.0875 ± 0.065 | 1.57 ± 0.033 | 1.13 ± 0.05 | 0.421 ± 0.051
GAGCCA | -0.0202 ± 0.12 | 1.93 ± 0.066 | 1.76 ± 0.018 | 0.234 ± 0.1
CAGAGG | 0.273 ± 0.0028 | 1.813 ± 0.0092 | 1.21 ± 0.06 | 0.702 ± 0.048
CAGAGA | 0.37782 ± 0.00012 | 1.892 ± 0.0089 | 1.659 ± 0.0052 | 0.696 ± 0.03
AAGGCG | 0.0654 ± 0.029 | 1.77 ± 0.08 | 1.24 ± 0.032 | 0.526 ± 0.018
CAGUAG | 0.475 ± 0.064 | 1.91 ± 0.11 | 1.57 ± 0.026 | 0.586 ± 0.0075

Variant | FACS-Seq fitted mean (log10) [1] | normalized RNA/DNA level with ligand (log10) [2] | normalized RNA/DNA level without ligand (log10) [3] | FACS-Seq fitted mean (log10) [4]
CAGUAU | 0.355 ± 0.032 | 1.92 ± 0.031 | 1.61 ± 0.062 | 0.629 ± 0.094
AAGCCG | 0.00433 ± 0.082 | 1.728 ± 0.013 | 1.26 ± 0.04 | 0.4844 ± 0.0029
AAGCCA | -0.28 ± 0.034 | 1.94 ± 0.039 | 1.76 ± 0.021 | 0.134 ± 0.017
AAGAAU | 0.521 ± 0.035 | 1.906 ± 0.0038 | 1.65 ± 0.018 | 0.5797 ± 0.0012
AAGAAG | -0.35 ± 0.015 | 1.545 ± 0.013 | 1.04 ± 0.028 | 0.459 ± 0.029
AAGAAA | 0.272 ± 0.028 | 1.91 ± 0.029 | 1.605 ± 0.01 | 0.598 ± 0.015
GAGGCG | 0.189 ± 0.012 | 1.95 ± 0.012 | 1.68 ± 0.088 | 0.597 ± 0.047
GAGGCA | 0.306 ± 0.0093 | 1.937 ± 0.018 | 1.9192 ± 0.0019 | 0.427 ± 0.021
GAGGCU | 0.751 ± 0.037 | 2 ± 0.021 | 1.98 ± 0.036 | 0.721 ± 0.025
UAGUGG | 0.242 ± 0.04 | 1.861 ± 0.015 | 1.41 ± 0.019 | 0.511 ± 0.035
UAGUGU | 0.0263 ± 0.029 | 1.9 ± 0.065 | 1.45 ± 0.063 | 0.449 ± 0.12
UAGUGA | 0.153 ± 0.015 | 1.88 ± 0.033 | 1.57 ± 0.041 | 0.438 ± 0.039
AAGCAA | 0.4932 ± 0.00094 | 1.899 ± 0.0026 | 1.61 ± 0.053 | 0.591 ± 0.03
AAGCAG | -0.122 ± 0.013 | 1.64 ± 0.044 | 1.19 ± 0.02 | 0.501 ± 0.039
AAGAUC | 0.614 ± 0.031 | 1.973 ± 0.0076 | 1.92 ± 0.043 | 0.556 ± 0.033
AAGAUU | -0.294 ± 0.047 | 1.9382 ± 0.00039 | 1.805 ± 0.016 | 0.11 ± 0.042
AAGAUG | 0.0294 ± 0.013 | 1.64 ± 0.087 | 1.09 ± 0.045 | 0.578 ± 0.025
AAGAUA | 0.32 ± 0.064 | 1.89 ± 0.031 | 1.63 ± 0.022 | 0.339 ± 0.1
GACUUG | 0.475 ± 0.072 | 1.84 ± 0.054 | 1.5 ± 0.034 | 0.228 ± 0.36
GAGAAG | -0.406 ± 0.0075 | 1.55 ± 0.017 | 1.05 ± 0.024 | 0.342 ± 0.037
GAGAAA | 0.546 ± 0.035 | 1.88 ± 0.021 | 1.597 ± 0.015 | 0.651 ± 0.048
GAGAAU | 0.4579 ± 0.0037 | 1.91 ± 0.021 | 1.67 ± 0.023 | 0.611 ± 0.05
GAGAAC | 0.417 ± 0.072 | 1.912 ± 0.0063 | 1.63 ± 0.038 | 0.735 ± 0.033
